# Measured values reported in patent publication US9012420B2, “Aptamer for chymase, and use thereof” (Ribomic Inc., priority 2009, dated 2015).
# T1: chymase (Homo sapiens, UniProt P23946 P23946:22-247)
# T1 sequence: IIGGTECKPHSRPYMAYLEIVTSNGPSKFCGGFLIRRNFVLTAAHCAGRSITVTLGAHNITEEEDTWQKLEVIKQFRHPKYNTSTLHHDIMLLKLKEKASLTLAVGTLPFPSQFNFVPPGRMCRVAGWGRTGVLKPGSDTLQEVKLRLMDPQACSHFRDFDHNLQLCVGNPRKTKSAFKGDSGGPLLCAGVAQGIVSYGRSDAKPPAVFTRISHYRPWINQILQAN
# B1: 56(43) (ssRNA)
# RNA: GGGUUAGAUAGAGUUAAAAACCC
# modifications: 2'-F U and C; 2'-OMe 1-3,7,8,10,13,16-20; 5' peptide 1 (Phe-Cys, disulfide); 3' idT
# B2: 56(44) (ssRNA)
# RNA: GGGUUAGAUAGAGUUAAAAACCC
# modifications: 2'-F U and C; 2'-OMe 1-3,7,8,10,13,16-20; 5' peptide 2 (Cys-Phe, disulfide); 3' idT
# What was measured:
# chymase [1] = target: T1, chymase; assay: inhibition; angiotensin I; recombinant 0.089; conditions: tags: human skin mast cell, Calbiochem
# Description: (§1) The total volume of solution for an enzyme reaction in the assay was set to 50 μL, and the reaction was performed in solution C buffer. First, 0.3-0.75 ng of chymase (recombinant, (manufactured by SIGMA) or native (manufactured by Calbiochem)) was diluted with solution C to give 5 μL thereof. Here, the recombinant is chymase expressed by yeast, and the native is chymase purified from human skin mast cell. The nucleic acid was serially diluted with solution C at a concentration of 0.0027-2 μM to give 25 μL thereof. The chymase solution (5 μL) and the nucleic acid solution (25 μL) were mixed, and the mixture was incubated at 37° C. for 5 min. […] The whole mixture was centrifuged at 4° C., 14000 rpm for 10 min, and the supernatant (30 μL) was used for the next fluorescence induction reaction.
# (§2) The above-mentioned supernatant (30 μL) was added to a 96 well plate (black, manufactured by Costar), a solution (15 μL) of 2% o-phthalaldehyde (manufactured by SIGMA) in methanol and 0.3M NaOH solution (170 μL) were added to each well, and the mixture was incubated at room temperature for 10 min. […] The plate was set on a microplate reader SpectraMax190 (manufactured by Molecular device) and the fluorescence intensity was measured at an excitation wavelength of 355 nm and a fluorescence wavelength of 460 nm.
# chymase [2] = target: T1, chymase; assay: inhibition; Suc-AAPF-MCA, 37 C, solution C; conditions: tags: recombinant, expressed in yeast, SIGMA
# Description: Here, Suc is a protecting succinyl group, and MCA is a 4-methylcoumaryl-7-amide group; upon cleavage of the C-terminal side of phenylalanine, AMC (7-amino-4-methyl-coumarine) is released. By detecting the fluorescence of this AMC, the enzyme activity of chymase can be determined. The assay was performed using a 96-well plate (F16 Black Maxisorp Fluoronunc, manufactured by Nunc), with a reaction mixture volume of 100 μL, in solution C as a buffer solution. First, each nucleic acid was serially diluted to 0.0027-2 μM concentrations in solution C to obtain 50 μL solutions. After 10 μL of the 1 mM substrate prepared in solution C was added thereto, the plate was set to the microplate reader SpectraMax190 (manufactured by Molecular Devices Corporation), and incubated at 37° C. for 5 minutes. Separately, 0.05 μg (or 0.005 μg) of chymase (recombinant, manufactured by SIGMA) was diluted in solution C to obtain a 40 μL chymase solution, and incubated at 37° C. for 5 minutes. The chymase solution was added to the mixture of the nucleic acid and substrate to initiate an enzyme reaction. The final chymase concentration in the reaction mixture was 16.7 nM (or 1.67 nM), the final substrate concentration being 100 μM. The plate containing the reaction mixture was set to the microplate reader SpectraMax190 (manufactured by Molecular Devices Corporation), and examined for time-dependent changes in the fluorescence intensity at 37° C. for 5 minutes (or 30 minutes) (excitation wavelength 380 nm, detection wavelength 460 nm). A linear approximation of the increase in the fluorescence of the AMC released from the substrate by chymase activity was generated, and its slope was taken as the initial velocity […]. For control, samples were treated and analyzed in the same manner in two cases: use of a 30N or 40N (a nucleotide of 30 or 40 consecutive bases represented by N; N is A, G, C or T) nucleic acid pool (negative control), and use of chymostatin, a known chymotrypsin-like serine protease inhibitor (positive control). Taking the initial reaction velocity without the nucleic acid and inhibitor (V_0) as a 100% enzyme activity, the inhibitory rate of each test substance was calculated using the following equation: […]
# The chymase inhibitory activity was measured in the same manner as in Example 3.
# chymase [3] = target: T1, chymase; assay: inhibition; angiotensin I; recombinant 0.328; conditions: tags: human skin mast cell, Calbiochem
# Description: as §1, §2
# chymase [4] = target: T1, chymase; assay: inhibition; angiotensin I; recombinant 0.394; conditions: tags: human skin mast cell, Calbiochem
# Description: as §1, §2
# chymase [5] = target: T1, chymase; assay: inhibition; angiotensin I; recombinant 0.137; conditions: tags: human skin mast cell, Calbiochem
# chymase [6] = target: T1, chymase; assay: inhibition; angiotensin I; recombinant 0.326; conditions: tags: human skin mast cell, Calbiochem
# Description: as §1, §2
# chymase [7] = target: T1, chymase; assay: inhibition; angiotensin I; recombinant 0.057; conditions: tags: human skin mast cell, Calbiochem
# chymase [8] = target: T1, chymase; assay: inhibition; angiotensin I; recombinant 0.426; conditions: tags: human skin mast cell, Calbiochem; label: 5' biotin
# chymase [9] = target: T1, chymase; assay: inhibition; angiotensin I; recombinant 0.239; conditions: tags: human skin mast cell, Calbiochem
# Description: as §1, §2
# chymase [10] = target: T1, chymase; assay: inhibition; angiotensin I; recombinant 0.039; conditions: tags: human skin mast cell, Calbiochem
# chymase [11] = target: T1, chymase; assay: inhibition; angiotensin I; recombinant 0.419; conditions: tags: human skin mast cell, Calbiochem; label: 3' biotin
# chymase [12] = target: T1, chymase; assay: inhibition; angiotensin I; recombinant 0.125; conditions: tags: human skin mast cell, Calbiochem
# Description: as §1, §2
# chymase [13] = target: T1, chymase; assay: inhibition; angiotensin I; recombinant 0.080; conditions: tags: human skin mast cell, Calbiochem
# chymase [14] = target: T1, chymase; assay: inhibition; angiotensin I; recombinant 0.119; conditions: tags: human skin mast cell, Calbiochem
# Description: as §1, §2
# chymase [15] = target: T1, chymase; assay: inhibition; angiotensin I; recombinant 0.687; conditions: tags: human skin mast cell, Calbiochem
# Description: as §1, §2
# chymase [16] = target: T1, chymase; assay: inhibition; angiotensin I; recombinant 0.153; conditions: tags: human skin mast cell, Calbiochem
# Description: as §1, §2
# chymase [17] = target: T1, chymase; assay: inhibition; angiotensin I; recombinant 0.310; conditions: tags: human skin mast cell, Calbiochem; label: 5' biotin
# chymase [18] = target: T1, chymase; assay: inhibition; angiotensin I; recombinant 0.210; conditions: tags: human skin mast cell, Calbiochem
# Description: as §1, §2
# chymase [19] = target: T1, chymase; assay: inhibition; angiotensin I; recombinant 0.414; conditions: tags: human skin mast cell, Calbiochem
# Description: as §1, §2
# chymase [20] = target: T1, chymase; assay: inhibition; angiotensin I; recombinant 0.085; conditions: tags: human skin mast cell, Calbiochem
# chymase [21] = target: T1, chymase; assay: inhibition; angiotensin I; recombinant 0.237; conditions: tags: human skin mast cell, Calbiochem
# chymase [22] = target: T1, chymase; assay: inhibition; angiotensin I; recombinant 0.078; conditions: tags: human skin mast cell, Calbiochem
# Description: as §1, §2
# chymase [23] = target: T1, chymase; assay: inhibition; angiotensin I; recombinant 0.289; conditions: tags: human skin mast cell, Calbiochem
# Description: as §1, §2
# chymase [24] = target: T1, chymase; assay: inhibition; angiotensin I; recombinant 0.161; conditions: tags: human skin mast cell, Calbiochem
# Description: as §1, §2
# chymase [25] = target: T1, chymase; assay: inhibition; angiotensin I; recombinant 0.377; conditions: tags: human skin mast cell, Calbiochem
# Description: as §1, §2
binder,measurement,setting,value
"GGGUUAGAUAGAGUUAAAAACCC (ssRNA, 2'-F U and C; 2'-OMe 1-3,7,10,13,16-20; 5' and 3' idT) [56(31)]",IC50,chymase [1],266 nM
B1,IC50,chymase [2],35 nM
same,IC50,chymase [3],591 nM
"GGGUUAGAUAGAGUUAAAAACCC (mixed, 2'-F U; 2'-OMe 1-3,7,8,10,13,16-20; DNA C21-C23; 5' and 3' idT) [56(48)]",IC50,chymase [2],36 nM
same,IC50,chymase [4],621 nM
"GGGUUAGAUAGAGUUAAAAACCC (ssRNA, 2'-F U and C; 2'-OMe 1-3,7,8,10,13,16-20; PS 6-7; 5' and 3' idT) [56(28)]",IC50,chymase [2],44 nM
same,IC50,chymase [5],410 nM
"GGGUUAGAUAGAGUUAAAAACCC (ssRNA, 2'-F U and C; 2'-OMe 1-3,7,8,10,13,16-20; 5' and 3' idT) [56(26)]",IC50,chymase [6],743 nM
same,IC50,chymase [2],54 nM
"GGGUUAGAUAGAGUUAAAAACCC (ssRNA, 2'-F U and C; 2'-OMe 1-3,7,10,13,16-20; PS 6-7; 5' and 3' idT) [56(34)]",IC50,chymase [2],31 nM
same,IC50,chymase [7],162 nM
"GGGUUAGAUAGAGUUAAAAACCC (ssRNA, 2'-F U and C; 2'-OMe 1-3,7,8,10,13,16-20; 5' and 3' idT) [56(46)]",IC50,chymase [2]; label: 5' biotin,49 nM
same,IC50,chymase [8],742 nM
"GGGTTAGAUAGAGUUAAAAACCC (mixed, 2'-F U and C; 2'-OMe 1-3,7,8,10,13,16-20; DNA T4,T5; 5' and 3' idT) [SEQ 70]",IC50,chymase [9],478 nM
"GGGUUAGAUAGAGUUAAAAACCC (ssRNA, 2'-F U and C; 2'-OMe 1-3,10,13,16-20; PS 6-7; 5' and 3' idT) [56(35)]",IC50,chymase [2],24 nM
same,IC50,chymase [10],120 nM
"GGGUUAGAUAGAGUUAAAAACCC (ssRNA, 2'-F U and C; 2'-OMe 1-3,7,8,10,13,16-20; 5' and 3' idT) [56(47)]",IC50,chymase [2]; label: 3' biotin,37 nM
same,IC50,chymase [11],542 nM
"AAAGGGUUAGAUAGAGUUAAAAACCC (ssRNA, 2'-F U and C; 2'-OMe 1-6,10,11,13,16,19-23; PS 9-10; 5' and 3' idT) [69(1)]",IC50,chymase [12],480 nM
same,IC50,chymase [2],44 nM
"GGGUUAGAUAGAGUUAAAAACCC (ssRNA, 2'-F U and C; 2'-OMe 1-3,7,8,10,13,16-20; PS 5-6,6-7; 5' and 3' idT) [56(29)]",IC50,chymase [2],36 nM
same,IC50,chymase [13],366 nM
"GGGUUAGAUAGAGUUAAAAACCC (ssRNA, 2'-F U and C; 2'-OMe 1-3,7,8,10,13,16-20; PS 6-7) [56(23)]",IC50,chymase [2],32 nM
same,IC50,chymase [14],360 nM
"GGGUUAGAUAGAGUUAAAAACCC (ssRNA, 2'-F U and C; 2'-OMe 1-3,7,8,10,13,16-20; 5' cholesterol; 3' idT) [56(42)]",IC50,chymase [2],71 nM
same,IC50,chymase [15],601 nM
"GGGUUAGAUAGAGUUAAAAACCC (mixed, 2'-F U and C; 2'-OMe 1-3,7,10,13,16-20; DNA A8; 5' and 3' idT) [56(50)]",IC50,chymase [2],27 nM
same,IC50,chymase [16],325 nM
"GGGUUAGAUAGAGUUAAAAACCC (mixed, 2'-F U and C; 2'-OMe 1-3,7,10,13,16-20; DNA A8; 5' and 3' idT) [56(51)]",IC50,chymase [2]; label: 5' biotin,29 nM
same,IC50,chymase [17],429 nM
"GGGUUAGAUAGAGUUAAAAACCC (ssRNA, 2'-F U and C; 2'-OMe 1-3,8,10,13,16-20; 5' and 3' idT) [56(30)]",IC50,chymase [2],34 nM
same,IC50,chymase [18],521 nM
B2,IC50,chymase [2],42 nM
same,IC50,chymase [19],643 nM
"GGGUUAGAUAGAGUUAAAAACCC (ssRNA, 2'-F U and C; 2'-OMe 1-3,8,10,13,16-20; PS 6-7; 5' and 3' idT) [56(33)]",IC50,chymase [2],35 nM
same,IC50,chymase [20],291 nM
"GGGUUAGAUAGAGUUAAAAACCC (ssRNA, 2'-F U and C; 2'-OMe 1-3,7,8,10,13,16-20; PS 5-6) [56(22)]",IC50,chymase [2],52 nM
same,IC50,chymase [21],563 nM
"GGGUUAGAUAGAGUUAAAAACCC (ssRNA, 2'-F U and C; 2'-OMe 1-3,10,13,16-20; 5' and 3' idT) [56(32)]",IC50,chymase [22],185 nM
"AAAGGGUUAGAUAGAGUUAAAAACCC (ssRNA, 2'-F U and C; 2'-OMe 1-6,10,11,13,16,19-23; 5' and 3' idT) [69(2)]",IC50,chymase [23],752 nM
same,IC50,chymase [2],48 nM
"GGGUUAGAUAGAGTUAAAAACCC (mixed, 2'-F U and C; 2'-OMe 1-3,7,8,10,13,16-20; DNA T14; 5' and 3' idT) [SEQ 71]",IC50,chymase [24],341 nM
"GGGUUAGAUAGAGUUAAAAACCC (ssRNA, 2'-F U and C; 2'-OMe 1-3,7,8,10,13,16-20; 5' idT; 3' PEG 40 kDa) [56(45)]",IC50,chymase [25],303 nM
same,IC50,chymase [2],59 nM
